The values that follow come from patent US20210269533A1 (SAMSUNG ELECTRONICS, published 2021).

The target in experiment [1] is c-Met on cancer cells (MKN45 gastric cancer cells; NCI-H441 lung cancer cells) (human, UniProt P08581 25-1390). Description: cell-based or functional assay.
Experiment [2] addresses T1, human c-Met protein (human, UniProt P08581 25-932, limits assumed).
T1 construct: also called c-Met antigen
Kind of experiment: SPR (Biacore), antibody immobilized on CM5 chip, human c-Met protein injected at 0.39-100 nM. As for the experimental part:
(§1) Affinities of the 4 types of antibodies against c-Met antigen prepared in Example 7 were measured by using a Biacore (GE healthcare). About 80 to 110 RU of each antibody was immobilized on a CM5 chip, 9 different concentrations ranging from 0.39 nM to 100 nM of human c-Met protein, as an antigen, were injected at a rate of 30 ul/min to obtain kₒₙ values and koff values as shown in Table 3. Then, KD values were calculated based thereon.
(Surface plasmon resonance follows binding to a sensor surface in real time, without labels.)

Experiment [3] concerns the target T1, human c-Met protein. Kind of experiment: SPR (Biacore), ratio of KD values of Table 3. As for the experimental part:
as §1

Sequence of c-Met on cancer cells (MKN45 gastric cancer cells; NCI-H441 lung cancer cells) (P08581 25-1390): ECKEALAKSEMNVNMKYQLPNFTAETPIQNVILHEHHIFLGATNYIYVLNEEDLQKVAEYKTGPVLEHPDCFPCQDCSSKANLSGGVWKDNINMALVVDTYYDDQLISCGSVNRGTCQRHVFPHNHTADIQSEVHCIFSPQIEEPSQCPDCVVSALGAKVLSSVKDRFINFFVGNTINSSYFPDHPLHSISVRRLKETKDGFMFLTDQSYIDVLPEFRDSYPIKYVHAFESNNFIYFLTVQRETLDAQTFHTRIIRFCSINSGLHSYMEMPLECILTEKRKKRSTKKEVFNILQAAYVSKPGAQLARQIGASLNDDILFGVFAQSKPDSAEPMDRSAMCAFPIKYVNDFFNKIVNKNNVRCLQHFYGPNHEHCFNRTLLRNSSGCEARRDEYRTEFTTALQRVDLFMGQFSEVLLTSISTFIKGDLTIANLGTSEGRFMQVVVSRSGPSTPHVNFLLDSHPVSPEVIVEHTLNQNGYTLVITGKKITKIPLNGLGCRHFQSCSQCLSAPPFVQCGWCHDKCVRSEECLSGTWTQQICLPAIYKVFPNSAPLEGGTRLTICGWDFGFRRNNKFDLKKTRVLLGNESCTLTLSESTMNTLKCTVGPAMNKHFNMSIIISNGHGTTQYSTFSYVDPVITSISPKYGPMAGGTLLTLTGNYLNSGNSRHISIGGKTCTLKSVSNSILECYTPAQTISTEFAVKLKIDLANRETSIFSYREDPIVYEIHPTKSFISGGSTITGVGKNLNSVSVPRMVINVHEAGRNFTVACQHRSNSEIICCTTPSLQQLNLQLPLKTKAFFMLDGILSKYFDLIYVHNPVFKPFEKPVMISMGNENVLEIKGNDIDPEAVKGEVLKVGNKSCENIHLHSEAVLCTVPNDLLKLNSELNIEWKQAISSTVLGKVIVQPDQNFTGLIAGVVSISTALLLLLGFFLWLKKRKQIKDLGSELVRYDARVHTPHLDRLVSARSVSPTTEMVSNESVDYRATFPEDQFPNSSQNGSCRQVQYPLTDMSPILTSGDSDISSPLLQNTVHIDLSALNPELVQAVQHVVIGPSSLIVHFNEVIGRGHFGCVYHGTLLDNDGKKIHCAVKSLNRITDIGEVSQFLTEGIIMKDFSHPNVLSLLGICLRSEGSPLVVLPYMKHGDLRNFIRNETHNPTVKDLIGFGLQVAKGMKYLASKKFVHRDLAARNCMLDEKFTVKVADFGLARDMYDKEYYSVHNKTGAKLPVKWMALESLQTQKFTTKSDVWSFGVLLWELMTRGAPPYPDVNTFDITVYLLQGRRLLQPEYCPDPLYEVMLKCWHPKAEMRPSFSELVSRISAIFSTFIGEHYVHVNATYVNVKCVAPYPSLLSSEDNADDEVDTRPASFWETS
T1 sequence (P08581 25-932 limits assumed): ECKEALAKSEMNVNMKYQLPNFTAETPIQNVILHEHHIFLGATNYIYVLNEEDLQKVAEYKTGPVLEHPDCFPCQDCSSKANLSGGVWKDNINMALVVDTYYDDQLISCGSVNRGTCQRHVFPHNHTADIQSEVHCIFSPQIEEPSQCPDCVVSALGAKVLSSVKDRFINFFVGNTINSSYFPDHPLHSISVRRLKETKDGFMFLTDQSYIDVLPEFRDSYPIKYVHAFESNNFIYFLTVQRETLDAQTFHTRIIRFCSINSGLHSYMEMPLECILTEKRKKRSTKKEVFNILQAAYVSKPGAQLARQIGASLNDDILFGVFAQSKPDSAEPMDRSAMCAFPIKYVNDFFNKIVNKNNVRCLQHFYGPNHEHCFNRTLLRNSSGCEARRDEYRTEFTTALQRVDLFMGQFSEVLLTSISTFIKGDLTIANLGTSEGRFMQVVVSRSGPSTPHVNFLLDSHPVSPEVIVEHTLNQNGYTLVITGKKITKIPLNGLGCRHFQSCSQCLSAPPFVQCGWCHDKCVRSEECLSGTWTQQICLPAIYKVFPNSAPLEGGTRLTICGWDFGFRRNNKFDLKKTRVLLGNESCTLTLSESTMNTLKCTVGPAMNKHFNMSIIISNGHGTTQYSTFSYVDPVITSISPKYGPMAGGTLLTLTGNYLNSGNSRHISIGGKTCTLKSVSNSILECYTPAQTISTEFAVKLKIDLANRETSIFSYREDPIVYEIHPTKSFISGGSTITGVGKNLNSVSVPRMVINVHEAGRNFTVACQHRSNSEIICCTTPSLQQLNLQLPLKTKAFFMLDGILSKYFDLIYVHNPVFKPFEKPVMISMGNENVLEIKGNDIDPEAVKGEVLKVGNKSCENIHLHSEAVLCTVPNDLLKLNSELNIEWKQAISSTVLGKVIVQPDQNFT

B1: huAbF46-H4-A5 (antibody, IgG1, V domains shown)
VH: EVQLVESGGGLVQPGGSLRLSCAASGFTFTDYYMSWVRQAPGKGLEWLGFIRNKANGYTTEYSASVKGRFTISRDNSKNTLYLQMNSLRAEDTAVYYCARDNWFAYWGQGTLVTVSS
VL: DIQMTQSPSSLSASVGDRVTITCKSSQSLLASGNQNNYLAWHQQKPGKAPKMLIIWASTRVSGVPSRFSGSGSGTDFTLTISSLQPEDFATYYCQQSYSRPFTFGQGTKVEIKR
notes: IgG1 constant region with U6-HC7 hinge, human kappa light chain; also called IgG from clone L3-5
What is called Kd is the concentration at which binding is half-saturated. A higher Kd goes with weaker binding. What is called koff is a measure of how fast the partners let go of each other. A low value points to a long-lived complex. A word on the kon: it is a measure of how fast the partners come together. Low values mean slower complex formation, high ones faster complex formation. For B1, in experiment [1], the “BrdU assay on NCI-H441 cells (agonism); safety improved by, at 10 ug/ml” value (“BrdU assay on NCI-H441 cells (agonism)” below) is 21% and the “degree of degradation of c-Met (total c-Met ELISA, MKN45 cells, 5 ug/ml, 24 h), increase compared to huAbF46” value (from here on “degree … increase compared to huAbF46”) is about 28%. Moreover, in the experiment with human c-Met protein [2], the Kd came out at 420 pM, the off-rate (koff) is 0.00024 s⁻¹ and the kon stood at 572000 M⁻¹ s⁻¹.

B2: huAbF46-H4-A1 (antibody, V domains shown)
VH: EVQLVESGGGLVQPGGSLRLSCAASGFTFTDYYMSWVRQAPGKGLEWLGFIRNKANGYTTEYSASVKGRFTISRDNSKNTLYLQMNSLRAEDTAVYYCARDNWFAYWGQGTLVTVSS
VL: DIQMTQSPSSLSASVGDRVTITCKSSQSLLASGNQNNYLAWHQQKPGKAPKMLIIWASTRVSGVPSRFSGSGSGTDFTLTISSLQPEDFATYYCQQSYSRPYTFGQGTKVEIKR
notes: also called IgG from clone L3-1
Take B2: the “fold improvement of affinity (against huAbF46)” value with human c-Met protein [3] worked out at 37 times. In experiment [1], the “BrdU assay on NCI-H441 cells (agonism)” value was found to be 25% and the “degree … increase compared to huAbF46” value was about 37%.

B3: huAbF46-H4-A3 (antibody, IgG1, V domains shown)
VH: EVQLVESGGGLVQPGGSLRLSCAASGFTFTDYYMSWVRQAPGKGLEWLGFIRNKANGYTTEYSASVKGRFTISRDNSKNTLYLQMNSLRAEDTAVYYCARDNWFAYWGQGTLVTVSS
VL: DIQMTQSPSSLSASVGDRVTITCKSSQSLLASGNQNNYLAWHQQKPGKAPKMLIIWASTRVSGVPSRFSGSGSGTDFTLTISSLQPEDFATYYCAQSYSHPFSFGQGTKVEIKR
notes: IgG1 constant region with U6-HC7 hinge, human kappa light chain; also called IgG from clone L3-3
On to B3, for which, in experiment [1], the “BrdU assay on NCI-H441 cells (agonism)” value came to 13% and the “degree … increase compared to huAbF46” value is about 28%. In the experiment with human c-Met protein [2], this molecule had a Kd of 340 pM, a koff of 0.000143 s⁻¹ and a kon of 419000 M⁻¹ s⁻¹.

B4: huAbF46-H4-A2 (antibody, IgG1, V domains shown)
VH: EVQLVESGGGLVQPGGSLRLSCAASGFTFTDYYMSWVRQAPGKGLEWLGFIRNKANGYTTEYSASVKGRFTISRDNSKNTLYLQMNSLRAEDTAVYYCARDNWFAYWGQGTLVTVSS
VL: DIQMTQSPSSLSASVGDRVTITCKSSQSLLASGNQNNYLAWHQQKPGKAPKMLIIWASTRVSGVPSRFSGSGSGTDFTLTISSLQPEDFATYYCGQSYSRPLTFGQGTKVEIKR
notes: IgG1 constant region with U6-HC7 hinge, human kappa light chain; also called IgG from clone L3-2
As for B4, the “fold improvement of affinity (against huAbF46)” value in the experiment with human c-Met protein [3] was found to be 5 times. Besides, in experiment [1], the “BrdU assay on NCI-H441 cells (agonism)” value came to 28% and the “degree … increase compared to huAbF46” value was about 28%. In the experiment with human c-Met protein [2], the equilibrium dissociation constant (Kd) stood at 500 pM, the koff is 0.000253 s⁻¹ and the kon worked out at 502000 M⁻¹ s⁻¹.
